# Legend:
# [1] = biological target: recombinant mouse-TIGIT (mouse) (UniProt P86176); assay: ELISA on recombinant mouse-TIGIT
# [2] = biological target: human TIGIT stably expressed on cells (Jurkat; 293T) (human) (UniProt Q495A1); assay: cell-based or functional assay
# [3] = biological target: human TIGIT stably expressed on cells (Jurkat; 293T) (human) (UniProt Q495A1); assay: whole cell binding, flow cytometry, n=3
# [4] = biological target: recombinant cynomolgus TIGIT (cyno-TIGIT ECD) (cynomolgus monkey); assay: ELISA on recombinant cyno-TIGIT
# [5] = biological target: recombinant human TIGIT extra cellular domain (ECD) protein (human) (UniProt Q495A1); assay: ELISA on recombinant human TIGIT ECD
# [6] = biological target: human TIGIT stably expressed on cells (Jurkat; 293T) (human) (UniProt Q495A1); assay: flow cytometry (CytoFlex), whole cell binding on h-TIGIT cells; representative of three experiments
# Chain of human TIGIT stably expressed on cells (Jurkat; 293T) (human) (Q495A1 22-244 limits assumed): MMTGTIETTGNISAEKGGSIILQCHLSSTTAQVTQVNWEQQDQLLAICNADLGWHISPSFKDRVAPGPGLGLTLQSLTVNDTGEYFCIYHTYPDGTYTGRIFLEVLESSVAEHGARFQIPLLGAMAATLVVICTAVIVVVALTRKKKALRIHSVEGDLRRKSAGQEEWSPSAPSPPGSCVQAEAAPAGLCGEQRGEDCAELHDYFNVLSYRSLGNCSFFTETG
# Chain of recombinant cynomolgus TIGIT (cyno-TIGIT ECD) (cynomolgus monkey) (chain, as listed by the source): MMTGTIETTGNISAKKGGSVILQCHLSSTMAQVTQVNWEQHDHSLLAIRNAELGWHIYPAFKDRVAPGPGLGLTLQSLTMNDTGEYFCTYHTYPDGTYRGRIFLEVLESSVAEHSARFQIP
# Chain of recombinant human TIGIT extra cellular domain (ECD) protein (human) (Q495A1 22-138 limits assumed): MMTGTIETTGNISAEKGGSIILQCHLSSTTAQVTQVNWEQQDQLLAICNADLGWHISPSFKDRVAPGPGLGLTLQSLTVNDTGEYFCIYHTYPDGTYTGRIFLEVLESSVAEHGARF
# Chain of recombinant mouse-TIGIT (mouse) (P86176 29-148 limits assumed): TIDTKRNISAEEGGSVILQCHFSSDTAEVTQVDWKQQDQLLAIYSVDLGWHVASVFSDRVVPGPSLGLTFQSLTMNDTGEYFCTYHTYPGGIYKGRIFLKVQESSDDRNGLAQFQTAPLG
Substance,EC50 (read off the curve) [1] [µg/mL],"EC50, TIGIT blockade NFAT luciferase reporter assay [2] [nM]",EC50 [3] [nM],EC50 (read off the curve) [4] [µg/mL],EC50 (read off the curve) [5] [µg/mL],EC50 (read off the curve) [6] [nM]
anti-mouse TIGIT reference antibody (Biolegend #142101),0.08,–,–,–,–,–
"Reference Ab 2 (reference anti-human-TIGIT antibody with the amino acid sequences of Tiragolumab, U.S. 2017/0088613 A1)",–,0.72,0.61,0.1,0.1,0.5

# Source: patent publication US20230037911A1
